T1: LIN7A, O14910
T1 sequence (O14910 103-200, limits assumed, looked up): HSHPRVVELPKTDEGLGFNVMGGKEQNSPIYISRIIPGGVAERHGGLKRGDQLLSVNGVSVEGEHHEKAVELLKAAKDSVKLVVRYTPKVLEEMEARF

T2: PCLO, Q9Y6V0
T2 sequence (Q9Y6V0 4491-4600, limits assumed, looked up): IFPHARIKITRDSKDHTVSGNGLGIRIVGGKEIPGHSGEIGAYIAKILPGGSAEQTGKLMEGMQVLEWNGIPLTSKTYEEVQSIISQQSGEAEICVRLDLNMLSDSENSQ

T3: NHERF3_4, Q5T2W1
T3 sequence (Q5T2W1 373-468, limits assumed, looked up): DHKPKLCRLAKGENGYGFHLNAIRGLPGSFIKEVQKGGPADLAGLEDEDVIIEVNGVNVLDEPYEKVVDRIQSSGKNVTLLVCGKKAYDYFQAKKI

T4: DLG3_1, Q92796
T4 sequence (Q92796 125-227, limits assumed, looked up): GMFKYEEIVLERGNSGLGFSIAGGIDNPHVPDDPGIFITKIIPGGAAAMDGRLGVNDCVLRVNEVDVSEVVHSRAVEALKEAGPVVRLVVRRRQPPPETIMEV

T5: MPP6, Q9NZW5
T5 sequence (Q9NZW5 125-219, limits assumed, looked up): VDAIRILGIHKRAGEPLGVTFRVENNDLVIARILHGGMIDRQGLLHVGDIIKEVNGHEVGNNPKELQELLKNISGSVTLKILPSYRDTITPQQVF

T6: SNTA1, Q13424
T6 sequence (Q13424 82-180, limits assumed, looked up): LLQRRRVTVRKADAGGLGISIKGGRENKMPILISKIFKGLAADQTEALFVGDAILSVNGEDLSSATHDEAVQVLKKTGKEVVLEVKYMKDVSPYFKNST

T7: SIPA1L2, Q9P2F8
T7 sequence (Q9P2F8 945-1036, limits assumed, looked up): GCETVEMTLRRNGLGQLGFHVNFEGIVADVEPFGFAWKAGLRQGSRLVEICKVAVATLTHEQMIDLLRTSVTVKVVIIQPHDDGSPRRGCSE

T8: MPDZ_5, O75970
T8 sequence (O75970 695-796, limits assumed, looked up): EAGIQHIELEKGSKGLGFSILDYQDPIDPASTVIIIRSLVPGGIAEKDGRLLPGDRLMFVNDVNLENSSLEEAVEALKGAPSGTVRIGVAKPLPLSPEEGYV

T9: NHERF3_1, Q5T2W1
T9 sequence (Q5T2W1 4-100, limits assumed, looked up): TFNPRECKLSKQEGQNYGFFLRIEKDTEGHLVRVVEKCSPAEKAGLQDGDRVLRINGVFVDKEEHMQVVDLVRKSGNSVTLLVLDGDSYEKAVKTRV

T10: DFNB31_3, Q9P202
T10 sequence (Q9P202 811-907, limits assumed, looked up): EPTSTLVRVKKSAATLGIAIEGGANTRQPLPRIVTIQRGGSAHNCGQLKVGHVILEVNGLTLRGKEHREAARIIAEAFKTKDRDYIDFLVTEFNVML

T11: PDZD2_2, O15018
T11 sequence (O15018 329-429, limits assumed, looked up): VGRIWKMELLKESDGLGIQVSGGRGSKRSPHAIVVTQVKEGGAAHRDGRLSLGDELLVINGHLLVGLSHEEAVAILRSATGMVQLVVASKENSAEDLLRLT


Molecular target: HTRA2, O43464
Experiment: holdup assay
Design: key: below the threshold = too weak to quantify, mostly under pKd 3.1 to 4
Details: plain residues with an end cap or a label only (N-terminal biotin on a linker: ado-ado)

HTRA2, O43464, sequence (O43464 355-458): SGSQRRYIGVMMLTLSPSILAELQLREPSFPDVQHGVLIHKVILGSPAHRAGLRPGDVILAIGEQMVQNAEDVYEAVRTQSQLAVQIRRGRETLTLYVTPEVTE

Row | Binder | pKd
1 | ADEMICITTL [CACNA1D, Q01668] | 3.83

Molecular target: T1, LIN7A, O14910
Experiment: holdup assay
Design: key: below the threshold = too weak to quantify, mostly under pKd 3.1 to 4
Details: plain residues with an end cap or a label only (N-terminal biotin on a linker: ado-ado)

Row | Binder | pKd
2 | ADEMICITTL [CACNA1D, Q01668] | below the threshold

Molecular target: T2, PCLO, Q9Y6V0
Experiment: holdup assay
Design: key: below the threshold = too weak to quantify, mostly under pKd 3.1 to 4
Details: plain residues with an end cap or a label only (N-terminal biotin on a linker: ado-ado)

Row | Binder | pKd
3 | ADEMICITTL [CACNA1D, Q01668] | below the threshold

Molecular target: T3, NHERF3_4, Q5T2W1
Experiment: holdup assay
Design: key: below the threshold = too weak to quantify, mostly under pKd 3.1 to 4
Details: plain residues with an end cap or a label only (N-terminal biotin on a linker: ado-ado)

Row | Binder | pKd
4 | ADEMICITTL [CACNA1D, Q01668] | 4.19

Molecular target: GOPC, Q9HD26
Experiment: holdup assay
Design: key: below the threshold = too weak to quantify, mostly under pKd 3.1 to 4
Details: plain residues with an end cap or a label only (N-terminal biotin on a linker: ado-ado)

Row | Binder | pKd
5 | ADEMICITTL [CACNA1D, Q01668] | 4.88

Molecular target: T4, DLG3_1, Q92796
Experiment: holdup assay
Design: key: below the threshold = too weak to quantify, mostly under pKd 3.1 to 4
Details: plain residues with an end cap or a label only (N-terminal biotin on a linker: ado-ado)

Row | Binder | pKd
6 | ADEMICITTL [CACNA1D, Q01668] | 3.56

Molecular target: T5, MPP6, Q9NZW5
Experiment: holdup assay
Design: key: below the threshold = too weak to quantify, mostly under pKd 3.1 to 4
Details: plain residues with an end cap or a label only (N-terminal biotin on a linker: ado-ado)

Row | Binder | pKd
7 | ADEMICITTL [CACNA1D, Q01668] | below the threshold

Molecular target: CASK, O14936
Experiment: holdup assay
Design: key: below the threshold = too weak to quantify, mostly under pKd 3.1 to 4
Details: plain residues with an end cap or a label only (N-terminal biotin on a linker: ado-ado)

CASK, O14936, sequence (O14936 487-570): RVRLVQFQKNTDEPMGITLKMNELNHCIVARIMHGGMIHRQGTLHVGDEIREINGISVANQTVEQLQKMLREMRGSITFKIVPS

Row | Binder | pKd
8 | ADEMICITTL [CACNA1D, Q01668] | below the threshold

Molecular target: T6, SNTA1, Q13424
Experiment: holdup assay
Design: key: below the threshold = too weak to quantify, mostly under pKd 3.1 to 4
Details: plain residues with an end cap or a label only (N-terminal biotin on a linker: ado-ado)

Row | Binder | pKd
9 | ADEMICITTL [CACNA1D, Q01668] | 4.42

Molecular target: DLG1_2, Q12959
Experiment: holdup assay
Design: key: below the threshold = too weak to quantify, mostly under pKd 3.1 to 4
Details: plain residues with an end cap or a label only (N-terminal biotin on a linker: ado-ado)

Row | Binder | pKd
10 | ADEMICITTL [CACNA1D, Q01668] | 4.06

Molecular target: FRMPD3, Q5JV73
Experiment: holdup assay
Design: key: below the threshold = too weak to quantify, mostly under pKd 3.1 to 4
Details: plain residues with an end cap or a label only (N-terminal biotin on a linker: ado-ado)

FRMPD3, Q5JV73, sequence (Q5JV73 12-100): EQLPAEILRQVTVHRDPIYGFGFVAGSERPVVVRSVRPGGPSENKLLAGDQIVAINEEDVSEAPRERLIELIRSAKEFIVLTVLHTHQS

Row | Binder | pKd
11 | ADEMICITTL [CACNA1D, Q01668] | below the threshold

Molecular target: T7, SIPA1L2, Q9P2F8
Experiment: holdup assay
Design: key: below the threshold = too weak to quantify, mostly under pKd 3.1 to 4
Details: plain residues with an end cap or a label only (N-terminal biotin on a linker: ado-ado)

Row | Binder | pKd
12 | ADEMICITTL [CACNA1D, Q01668] | below the threshold

Molecular target: T8, MPDZ_5, O75970
Experiment: holdup assay
Design: key: below the threshold = too weak to quantify, mostly under pKd 3.1 to 4
Details: plain residues with an end cap or a label only (N-terminal biotin on a linker: ado-ado)

Row | Binder | pKd
13 | ADEMICITTL [CACNA1D, Q01668] | below the threshold

Molecular target: T9, NHERF3_1, Q5T2W1
Experiment: holdup assay
Design: key: below the threshold = too weak to quantify, mostly under pKd 3.1 to 4
Details: plain residues with an end cap or a label only (N-terminal biotin on a linker: ado-ado)

Row | Binder | pKd
14 | ADEMICITTL [CACNA1D, Q01668] | 4.22

Molecular target: DLG1_1, Q12959
Experiment: holdup assay
Design: key: below the threshold = too weak to quantify, mostly under pKd 3.1 to 4
Details: plain residues with an end cap or a label only (N-terminal biotin on a linker: ado-ado)

Row | Binder | pKd
15 | ADEMICITTL [CACNA1D, Q01668] | 3.91

Molecular target: NHERF2_2, Q15599
Experiment: holdup assay
Design: key: below the threshold = too weak to quantify, mostly under pKd 3.1 to 4
Details: plain residues with an end cap or a label only (N-terminal biotin on a linker: ado-ado)

NHERF2_2, Q15599, sequence (Q15599 142-238): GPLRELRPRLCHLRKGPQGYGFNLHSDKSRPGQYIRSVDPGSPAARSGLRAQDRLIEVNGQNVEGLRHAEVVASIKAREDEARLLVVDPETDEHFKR

Row | Binder | pKd
16 | ADEMICITTL [CACNA1D, Q01668] | 4.63

Molecular target: IL16_3, Q14005
Experiment: holdup assay
Design: key: below the threshold = too weak to quantify, mostly under pKd 3.1 to 4
Details: plain residues with an end cap or a label only (N-terminal biotin on a linker: ado-ado)

IL16_3, Q14005, sequence (Q14005 1107-1207): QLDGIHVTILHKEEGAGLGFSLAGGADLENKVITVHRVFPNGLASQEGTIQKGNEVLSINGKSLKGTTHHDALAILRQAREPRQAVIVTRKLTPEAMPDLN

Row | Binder | pKd
17 | ADEMICITTL [CACNA1D, Q01668] | below the threshold

Molecular target: FRMPD2_3, Q68DX3
Experiment: holdup assay
Design: key: below the threshold = too weak to quantify, mostly under pKd 3.1 to 4
Details: plain residues with an end cap or a label only (N-terminal biotin on a linker: ado-ado)

FRMPD2_3, Q68DX3, sequence (Q68DX3 1073-1166): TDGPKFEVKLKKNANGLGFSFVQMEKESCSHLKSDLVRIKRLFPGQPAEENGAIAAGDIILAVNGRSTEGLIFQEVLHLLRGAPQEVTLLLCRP

Row | Binder | pKd
18 | ADEMICITTL [CACNA1D, Q01668] | below the threshold

Molecular target: DLG1_3, Q12959
Experiment: holdup assay
Design: key: below the threshold = too weak to quantify, mostly under pKd 3.1 to 4
Details: plain residues with an end cap or a label only (N-terminal biotin on a linker: ado-ado)

Row | Binder | pKd
19 | ADEMICITTL [CACNA1D, Q01668] | 3.78

Molecular target: GRIP2_6, Q9C0E4
Experiment: holdup assay
Design: key: below the threshold = too weak to quantify, mostly under pKd 3.1 to 4
Details: plain residues with an end cap or a label only (N-terminal biotin on a linker: ado-ado)

GRIP2_6, Q9C0E4, sequence (Q9C0E4 648-740): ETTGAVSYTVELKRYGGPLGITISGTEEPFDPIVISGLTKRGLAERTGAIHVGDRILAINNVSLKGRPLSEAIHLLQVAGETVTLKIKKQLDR

Row | Binder | pKd
20 | ADEMICITTL [CACNA1D, Q01668] | below the threshold

Molecular target: T10, DFNB31_3, Q9P202
Experiment: holdup assay
Design: key: below the threshold = too weak to quantify, mostly under pKd 3.1 to 4
Details: plain residues with an end cap or a label only (N-terminal biotin on a linker: ado-ado)

Row | Binder | pKd
21 | ADEMICITTL [CACNA1D, Q01668] | 4.89

Molecular target: MAGI2_2, Q86UL8
Experiment: holdup assay
Design: key: below the threshold = too weak to quantify, mostly under pKd 3.1 to 4
Details: plain residues with an end cap or a label only (N-terminal biotin on a linker: ado-ado)

MAGI2_2, Q86UL8, sequence (Q86UL8 410-522): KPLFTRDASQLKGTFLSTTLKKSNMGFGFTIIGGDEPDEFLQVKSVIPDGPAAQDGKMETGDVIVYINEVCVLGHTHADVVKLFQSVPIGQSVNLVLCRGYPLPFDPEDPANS

Row | Binder | pKd
22 | ADEMICITTL [CACNA1D, Q01668] | below the threshold

Molecular target: MAST1, Q9Y2H9
Experiment: holdup assay
Design: key: below the threshold = too weak to quantify, mostly under pKd 3.1 to 4
Details: plain residues with an end cap or a label only (N-terminal biotin on a linker: ado-ado)

MAST1, Q9Y2H9, sequence (Q9Y2H9 962-1065): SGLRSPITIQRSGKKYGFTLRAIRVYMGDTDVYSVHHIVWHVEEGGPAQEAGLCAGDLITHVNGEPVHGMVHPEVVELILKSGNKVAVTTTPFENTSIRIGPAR

Row | Binder | pKd
23 | ADEMICITTL [CACNA1D, Q01668] | 5.06

Molecular target: GRASP, Q7Z6J2
Experiment: holdup assay
Design: key: below the threshold = too weak to quantify, mostly under pKd 3.1 to 4
Details: plain residues with an end cap or a label only (N-terminal biotin on a linker: ado-ado)

GRASP, Q7Z6J2, sequence (Q7Z6J2 96-193): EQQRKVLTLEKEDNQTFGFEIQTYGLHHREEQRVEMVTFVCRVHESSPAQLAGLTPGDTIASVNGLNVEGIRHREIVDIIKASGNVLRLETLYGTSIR

Row | Binder | pKd
24 | ADEMICITTL [CACNA1D, Q01668] | 5.41

Molecular target: GRID2IP_2, A4D2P6
Experiment: holdup assay
Design: key: below the threshold = too weak to quantify, mostly under pKd 3.1 to 4
Details: plain residues with an end cap or a label only (N-terminal biotin on a linker: ado-ado)

GRID2IP_2, A4D2P6, sequence (A4D2P6 272-370): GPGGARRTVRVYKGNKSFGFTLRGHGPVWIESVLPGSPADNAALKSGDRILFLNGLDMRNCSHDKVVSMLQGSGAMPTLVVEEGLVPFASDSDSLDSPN

Row | Binder | pKd
25 | ADEMICITTL [CACNA1D, Q01668] | 4.94

Molecular target: T11, PDZD2_2, O15018
Experiment: holdup assay
Design: key: below the threshold = too weak to quantify, mostly under pKd 3.1 to 4
Details: plain residues with an end cap or a label only (N-terminal biotin on a linker: ado-ado)

Row | Binder | pKd
26 | ADEMICITTL [CACNA1D, Q01668] | 3.95

Molecular target: GRIP2_5, Q9C0E4
Experiment: holdup assay
Design: key: below the threshold = too weak to quantify, mostly under pKd 3.1 to 4
Details: plain residues with an end cap or a label only (N-terminal biotin on a linker: ado-ado)

GRIP2_5, Q9C0E4, sequence (Q9C0E4 544-642): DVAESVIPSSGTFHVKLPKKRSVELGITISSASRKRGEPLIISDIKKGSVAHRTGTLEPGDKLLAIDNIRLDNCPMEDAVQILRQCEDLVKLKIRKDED

Row | Binder | pKd
27 | ADEMICITTL [CACNA1D, Q01668] | below the threshold

— publication PMC9482650, “Quantitative fragmentomics allow affinity mapping of interactomes” (Nature Communications, 2022)
